± gives the uncertainty stated by the source.

This data set can be described thus: self-splicing fitness, log relative to wild type (ln ratio); higher = more splicing; Tetrahymena group I intron in knt gene, E. coli kanamycin selection, DiMSum; sequences stand for … in CUCUCU…GGAGGGAAAAGUUAUCAGGCAUGCACCUGGUAGCUAGUCUUUAAACCAAUAGAUUGCAUCGGUUUAAAAGGCAAGACCGUCAAAUUGCGGGAAAGGGGUCAACAGCCGUUCAGUACCAAGUCUCAGGGGAAACUUUGAGAUGGCCUUGCAAAGGGUAUGGUAAUAAGCUGACGGACAUGGUCCUAACCACGCAGCCAAGUCCUAAGUCAACAGAUCUUCUGUUGAUAUGGAUGCAGUUCACAGACUAAAUGUCGGUCGGGGAAGAUGUAUUCUUCUCAUAAGAUAUAGUCGGACCUCUCCUUAAUGGGAGCUAGCGGAUGAAGUGAUGCAACACUGGAGCCGCUGGGAACUAAUUUGUAUGCGAAAGUAUAUUGAUUAGUUUUGGAGUACUCGUGGUCG
The method, boiled down: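 Library with all eight P1ex-region intron nucleotides randomised, intron inside the knt kanamycin-resistance gene on pET-22b(+), in E. coli BL21(DE3). Cells grew overnight at 37°C or 30°C on LB agar with or without 25 μg/mL kanamycin (plus 100 μg/mL carbenicillin, 50 μM IPTG, 0.2% rhamnose), in six replicate transformations. Pooled colonies were amplicon-sequenced on Illumina HiSeq 2500. DiMSum fitness is the error-weighted combination of wild-type-normalised replicate fold changes, kanamycin versus none.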

Turning to UUACAGCAAUAUUACGAAGC, the “self-splicing fitness (ln)” value (37 °C) was -1.41 ± 0.4.
Consider UACCAGCAAUAUUACGGGUU, for which the “self-splicing fitness (ln)” value is -2.21 ± 0.085 (30 °C) and -1.46 ± 0.1 (37 °C).
The corresponding values for UCCAAGCAAUAUUACGUCAG are -3.02 ± 0.15 and -1.69 ± 0.13.
With AUCCAGCAAUAUUACGCCUA, the “self-splicing fitness (ln)” value runs as follows: (30 °C) -1.29 ± 0.19; (37 °C) 0.121 ± 0.13.
On the same counts, the results for CCUAAGCAAUAUUACGGCGU are -4.15 ± 0.3 and -2.49 ± 0.24.
The corresponding values for UGCCAGCAAUAUUACGAUAC are -3.95 ± 0.25 and -2.29 ± 0.25.
For AGCAAGCAAUAUUACGUCUG, the “self-splicing fitness (ln)” value runs as follows: (30 °C) -2.22 ± 0.09; (37 °C) -1.15 ± 0.095.
On the same counts, the results for UCCGAGCAAUAUUACGAGCG are -3.16 ± 0.18 and -2.47 ± 0.24.
The corresponding values for CAUGAGCAAUAUUACGGAAU are -4.62 ± 0.36 and -2.58 ± 0.28.
In the case of ACUGAGCAAUAUUACGAGAC, the “self-splicing fitness (ln)” value is, setting by setting: (30 °C) -2.78 ± 0.22; (37 °C) -2.63 ± 0.2.
On to CACGAGCAAUAUUACGAGAU, for which the “self-splicing fitness (ln)” value was -4.36 ± 0.32 (30 °C) and -3.09 ± 0.26 (37 °C).
The corresponding values for AUAGAGCAAUAUUACGAAAA are -1.06 ± 0.3 and -1.85 ± 0.35.
The corresponding values for GAUUAGCAAUAUUACGGAGC are -3.23 ± 0.17 and -1.23 ± 0.13.
For CCCAAGCAAUAUUACGGGCC, the “self-splicing fitness (ln)” value reads like this: (30 °C) -3.98 ± 0.22; (37 °C) -2.08 ± 0.19.
The corresponding values for UUCAAGCAAUAUUACGACCU are -2.33 ± 0.27 and -0.916 ± 0.18.
As to CUUGAGCAAUAUUACGGGGC, the “self-splicing fitness (ln)” value reads like this: (30 °C) -3.82 ± 0.2; (37 °C) -0.729 ± 0.17.
Take UGAUAGCAAUAUUACGGCCA: the “self-splicing fitness (ln)” value is, setting by setting: (30 °C) -0.243 ± 0.14; (37 °C) 0.424 ± 0.2.
On the same counts, the results for AAACAGCAAUAUUACGUCUU are -0.362 ± 0.054 and 0.322 ± 0.071.
On the same counts, the results for AAUUAGCAAUAUUACGACAG are -1.72 ± 0.32 and -0.992 ± 0.25.
The corresponding values for GGUUAGCAAUAUUACGCACU are -2.48 ± 0.28 and -2.32 ± 0.25.
Consider UCGGAGCAAUAUUACGGCGU, for which the “self-splicing fitness (ln)” value reads like this: (30 °C) -1.82 ± 0.22; (37 °C) -0.847 ± 0.16.
On the same counts, the results for AAAAAGCAAUAUUACGGUUG are -2.28 ± 0.1 and -1.58 ± 0.13.
Take GUCUAGCAAUAUUACGGGGG: the “self-splicing fitness (ln)” value was -2.58 ± 0.33 (30 °C) and -1.46 ± 0.17 (37 °C).
Consider CCACAGCAAUAUUACGUAGG, for which the “self-splicing fitness (ln)” value is, setting by setting: (30 °C) -2.62 ± 0.093; (37 °C) -2.18 ± 0.14.
On the same counts, the results for CCACAGCAAUAUUACGAAGU are -3.69 ± 0.18 and -3.17 ± 0.21.
GCGAAGCAAUAUUACGAGAC: the “self-splicing fitness (ln)” value by setting is: (30 °C) -2.67 ± 0.26; (37 °C) -1.46 ± 0.25.
Turning to CGGUAGCAAUAUUACGCAUC, where the note is “37 °C”, the “self-splicing fitness (ln)” value is -2.58 ± 0.21.
With ACGGAGCAAUAUUACGUUGC, the “self-splicing fitness (ln)” value (37 °C) is -3.12 ± 0.4.
As for CCCUAGCAAUAUUACGAGCC, the “self-splicing fitness (ln)” value (30 °C) was -3.5 ± 0.29.
In the case of AGUGAGCAAUAUUACGUCAU, the “self-splicing fitness (ln)” value is -1.29 ± 0.14 (30 °C) and -2.29 ± 0.22 (37 °C).
On the same counts, the results for UUUGAGCAAUAUUACGGCGU are -3.7 ± 0.26 and -1.9 ± 0.2.
Turning to CCCUAGCAAUAUUACGGAUC, the “self-splicing fitness (ln)” value (30 °C) was -4.33 ± 0.39 and the “self-splicing fitness (ln)” value (37 °C) is -1.71 ± 0.25.
As to UUCCAGCAAUAUUACGUGAU, the “self-splicing fitness (ln)” value reads like this: (30 °C) -1.08 ± 0.044; (37 °C) -0.294 ± 0.063.
On the same counts, the results for UGCAAGCAAUAUUACGUCGC are -2.86 ± 0.43 and -2.36 ± 0.49.
On to AACCAGCAAUAUUACGAACA, for which the “self-splicing fitness (ln)” value runs as follows: (30 °C) -0.809 ± 0.07; (37 °C) 0.214 ± 0.07.
Consider GCGGAGCAAUAUUACGGCUG, for which the “self-splicing fitness (ln)” value (30 °C) was -2.93 ± 0.34.
As to UGCGAGCAAUAUUACGCGAG, the “self-splicing fitness (ln)” value was -3.16 ± 0.23 (30 °C) and -1.79 ± 0.25 (37 °C).
On the same counts, the results for GCAAAGCAAUAUUACGCGAG are -2.18 ± 0.28 and -1.11 ± 0.18.
As for CCACAGCAAUAUUACGGCCG, the “self-splicing fitness (ln)” value is -0.955 ± 0.073 (30 °C) and 0.0456 ± 0.1 (37 °C).
With UUUCAGCAAUAUUACGCGUG, the “self-splicing fitness (ln)” value reads like this: (30 °C) -1.02 ± 0.082; (37 °C) -0.508 ± 0.094.
Take CGCAAGCAAUAUUACGGCCA: the “self-splicing fitness (ln)” value runs as follows: (30 °C) -1.14 ± 0.13; (37 °C) -0.716 ± 0.12.
Turning to CGUAAGCAAUAUUACGUGCU, the “self-splicing fitness (ln)” value is, setting by setting: (30 °C) -3.24 ± 0.21; (37 °C) -1.94 ± 0.21.
On the same counts, the results for UAAAAGCAAUAUUACGCUUG are -1.9 ± 0.12 and -0.981 ± 0.14.
As to UAUAAGCAAUAUUACGAGUA, the “self-splicing fitness (ln)” value is -0.776 ± 0.085 (30 °C) and -0.245 ± 0.081 (37 °C).
On the same counts, the results for GUGUAGCAAUAUUACGAUAC are -2.23 ± 0.25 and -1.01 ± 0.25.
Turning to GCAAAGCAAUAUUACGGCGC, the “self-splicing fitness (ln)” value (30 °C) was -2.1 ± 0.19 and the “self-splicing fitness (ln)” value (37 °C) was -0.824 ± 0.2.
The corresponding values for UUCGAGCAAUAUUACGUCUC are -4.02 ± 0.47 and -2 ± 0.16.
The corresponding values for AUUCAGCAAUAUUACGGCGG are -1.77 ± 0.1 and -1.77 ± 0.11.
For the sequence CAGGAGCAAUAUUACGCCUA, the “self-splicing fitness (ln)” value is, setting by setting: (30 °C) -0.617 ± 0.19; (37 °C) -1.01 ± 0.21.
For the sequence UUCUAGCAAUAUUACGUUAG, the “self-splicing fitness (ln)” value by setting is: (30 °C) -3.63 ± 0.29; (37 °C) -2.67 ± 0.37.
AUACAGCAAUAUUACGACUU: the “self-splicing fitness (ln)” value (30 °C) was -0.367 ± 0.065 and the “self-splicing fitness (ln)” value (37 °C) was 0.271 ± 0.081.
AGGCAGCAAUAUUACGCUGG: the “self-splicing fitness (ln)” value is, setting by setting: (30 °C) -3.73 ± 0.22; (37 °C) -1.2 ± 0.17.
Turning to CAGUAGCAAUAUUACGCUUG, the “self-splicing fitness (ln)” value runs as follows: (30 °C) -0.882 ± 0.13; (37 °C) -0.797 ± 0.22.
As to GCAUAGCAAUAUUACGCUCU, the “self-splicing fitness (ln)” value reads like this: (30 °C) -1.81 ± 0.12; (37 °C) -0.894 ± 0.12.
Turning to CAGGAGCAAUAUUACGGGGC, under “30 °C”, the “self-splicing fitness (ln)” value is -2.17 ± 0.23.
Regarding GCGCAGCAAUAUUACGUGUC, the “self-splicing fitness (ln)” value runs as follows: (30 °C) -2.71 ± 0.19; (37 °C) -2.83 ± 0.24.
On the same counts, the results for UCAAAGCAAUAUUACGCUGG are -3.55 ± 0.37 and -2.28 ± 0.33.
On the same counts, the results for UUGUAGCAAUAUUACGGGUA are -1.75 ± 0.094 and -0.802 ± 0.099.
On the same counts, the results for ACUCAGCAAUAUUACGCAGC are -2.14 ± 0.079 and -0.903 ± 0.093.
Take AAGCAGCAAUAUUACGAUAG: the “self-splicing fitness (ln)” value reads like this: (30 °C) -3.63 ± 0.2; (37 °C) -1.45 ± 0.15.
On the same counts, the results for GUUAAGCAAUAUUACGCAUA are -0.993 ± 0.091 and -0.274 ± 0.11.
Turning to GCAGAGCAAUAUUACGCUCU, for the setting “30 °C”, the “self-splicing fitness (ln)” value was -3.93 ± 0.44.
For the sequence CUCAAGCAAUAUUACGCUAG, the “self-splicing fitness (ln)” value is, setting by setting: (30 °C) -4.26 ± 0.32; (37 °C) -2.35 ± 0.14.
On the same counts, the results for ACCCAGCAAUAUUACGCUAA are -1.67 ± 0.069 and -1.33 ± 0.068.
On the same counts, the results for ACUGAGCAAUAUUACGAAUC are -3.54 ± 0.36 and -2.55 ± 0.21.
As for GUAGAGCAAUAUUACGCGUG, the “self-splicing fitness (ln)” value by setting is: (30 °C) -1.18 ± 0.11; (37 °C) -0.777 ± 0.18.
The corresponding values for UUUGAGCAAUAUUACGGGAC are -3.43 ± 0.34 and -2.12 ± 0.27.
The corresponding values for UGUGAGCAAUAUUACGGCUU are -2.85 ± 0.27 and -1.81 ± 0.23.
Consider GAUAAGCAAUAUUACGGUUC, for which the “self-splicing fitness (ln)” value (30 °C) is -3.24 ± 0.43 and the “self-splicing fitness (ln)” value (37 °C) is -2.5 ± 0.31.
The corresponding values for UUGAAGCAAUAUUACGGUCA are -0.522 ± 0.075 and -0.262 ± 0.099.
On to UCUGAGCAAUAUUACGCUCG, for which the “self-splicing fitness (ln)” value by setting is: (30 °C) -3.7 ± 0.37; (37 °C) -0.349 ± 0.23.
The corresponding values for CACAAGCAAUAUUACGACAG are 0.0654 ± 0.065 and 0.61 ± 0.083.
As to CUUCAGCAAUAUUACGUUAU, the “self-splicing fitness (ln)” value reads like this: (30 °C) -3.2 ± 0.26; (37 °C) -2.14 ± 0.28.
Turning to UGAGAGCAAUAUUACGUAAG, the “self-splicing fitness (ln)” value runs as follows: (30 °C) -3.27 ± 0.23; (37 °C) -1.67 ± 0.21.
On the same counts, the results for UGACAGCAAUAUUACGGGCG are -0.223 ± 0.1 and 0.3 ± 0.11.
On the same counts, the results for ACGUAGCAAUAUUACGAGCG are -1.53 ± 0.11 and -0.668 ± 0.12.
The corresponding values for UAAUAGCAAUAUUACGCGAA are -3.51 ± 0.24 and -0.873 ± 0.14.

The values are drawn from the supplement of paper PMC7877785.
